From patent US20240125796A1

Assays:
[1] = target: Herceptin antibody labelled with biotin; test: mass photometry; consecutive measurement with 25 mM free biotin, compared with the PBS control
[2] = target: Herceptin antibody labelled with biotin; test: mass photometry; first 500 s after 25 mM free biotin, release of Herc-B from immobilised streptavidin
[3] = target: Herceptin antibody labelled with biotin; test: mass photometry; control with PBS as release agent, streptavidin-coated coverslip loaded with Herc-B
[4] = target: Herceptin antibody labelled with biotin; test: mass photometry; first 500 s after 25 mM free biotin, compared with the PBS control
[5] = target: Herceptin antibody labelled with biotin; test: mass photometry; consecutive measurement with 25 mM free biotin, release of Herc-B from immobilised streptavidin

Percentage increase to control [1]: 79.8% | Difference UB - B [2]: 179 counts | Unbinding (UB) events, MW 76 to 273 kDa [2]: 460 counts | Difference UB - B [3]: 17 counts | Unbinding (UB) events, MW 76 to 273 kDa [3]: 161 counts | Percentage increase to control [4]: 90.5% | Difference UB - B [5]: 84 counts | Unbinding (UB) events, MW 76 to 273 kDa [5]: 565 counts
Substance: streptavidin (from UniProt P22629 37-163)
